Consider 15 molecules from patent US20230348603A1 (VERSEAU THERAPEUTICS, published 2023).

The term Kd denotes the free concentration of one partner at which half of the binding sites on the other are occupied at equilibrium, for simple one-to-one binding. One may read the koff as the first-order rate constant of dissociation.

Residue numbers refer to the chain shown, from its start. In names and notes the source's numbering stands.

The chains are these.
B1: 15C04 mouse Fab (periplasmic extract) (Fab, V domains shown)
VH: QIQLQESGPSLVRPSQTLSLTCSVTGDSITSGYWNWIRKFPGDKLEYLGYISYSGFTYYNPSLKSRISITRDTSKNQYYLQLNSVTTEDTATYYCASSYYGSSLGFPYWGQGTLVTVSA
VL: DVVMTQTPLSLPVSLGDQASISCRSSQSLVHSNGNTYLHWYLQKPGQSPKLLIYKVSNRFSGVPDRFSGSGSGTDFTLKISRVEAEDLGVYFCSQSTHVPWTFGGGTKLEIK
notes: mouse Fab with C-terminal His6-c-myc tag
B2: 16E03 mouse Fab (periplasmic extract) (Fab, V domains shown)
VH: QVQLQQSGAELARPGASVKMSCKASGYTFTSYTMHWIKQRPGQGLEWIGYINPSSGHTYYNQKFKDKATLTPDKSSSTAYMQLTSLTSEDSAVYYCARRIPTAYAMDYWGQGTSVTVSS
VL: EIQMTQSHKFMSTSVGDRVSITCKASQDVGTAVAWYQQKPGQSPKLLIYWASTRHTGVPDRFTGSGSGTDFTLTISNVQSEDLADYFCQQYSSYPLTFGAGTKLELK
notes: as for B1
B3: 5D2.C8 mouse/human chimeric IgG4 (S228P) kappa (antibody, V domains shown)
VH: EVKLVESGGGLVKPGGSLKLSCAVSGFTFSNSAMSWVRQTPAKRLEWVAYISISGDNTYYPDSVKGRFTISRDNAKNTLYLQMSSLRSEDTAMYYCARRGYDYDGFTHWGQGTLVTVSA
VL: DILLTQSPAILSVSPGERVSFSCRASQNIGTSIHWYQQRTNGSPRLLIKYASQSISGIPSRFSGSGSGTDFTLSINSVESEDIADYYCQQSYSWPLTFGTGTQLELKR
B4: 16F6.E1 mouse/human chimeric IgG4 (S228P) kappa (antibody, V domains shown)
VH: QVQLQQPGAEMVRPGASLKLSCKASGYTFTSYWMHWVKQRPGQGLEWIGKIDPSKNTTHYNQNFRDKATLTVDRSSSTAYMQLNSLTSEDSAVYFCVTWDGDFTYWGQGTLVTISA
VL: NIVLTQSPPSLAVSLGQRATISCRASESVDSYGNSFMHWYQQKPGQPPKLLIYLASNLESGVPARFSGSGSRTDFTLTIDPVEADDAATYFCHQNNEDPWTFGGGTKLEIKR
B5: 13E11.A4 mouse/human chimeric IgG4 (S228P) kappa (antibody)
heavy: not shown
light: DIVMTQSHKFMSTSVGDNVSITCKASQYVSNTVAWYQQKPGQSPKLLIYSASYRNTGVPDRFTGSGSGTNFTFTISNMQAEDLAFYYCQQHYTSPLTFGAGTKLELKRTVAAPSVFIFPPSDEQLKSGTASVVCLLNNFYPREAKVQWKVDNALQSGNSQESVTEQDSKDSTYSLSSTLTLSKADYEKHKVYACEVTHQGLSSPVTKSFNRGEC
B6: 1H7.C7 mouse/human chimeric IgG4 (S228P) kappa (antibody, V domains shown)
VH: EVQLVESGGGLVMPGGSRRLSCAASGFTFSDSGMYWVRQAPEKGLEWIAYISSGSDTLYYAATVKGRFTISRDNAKNTLFLQMTSLRSEDTAIYYCAKRNFYGYDVMDYWGQGTSVTVSS
VL: DIVMTQSHKFMSTSVGDRVSITCKASQDVSNVVAWYQQKPGQSPKLLIYSASYRYTGVPDRFAGSGSGTDFTFTISSVQAEDLAVYYCQQHYSTPWTFGGGTKLEIKR
B7: 10E8.B6 mouse/human chimeric IgG4 (S228P) kappa (antibody, V domains shown)
VH: EVQLQQSGPELMKPGDSVKMSCKASGYTFTDYYMDWVKQSHGKSLEWIGYIYPNIDFTTYNQKFKGKATLTVDKSSNTAYMELHSLTSEDSAVYYCTRRDLPLHGSAYYFDYWGQGTTLTVSS
VL: DIVMSQSPSSLAVSAGEKVTMSCKSSQSLLNSRTRKNYLAWYQQKPGQSPKLLIYWASTRESGVPDRFTGSGSGTDFTLTISSVQAEDLAVYYCKQSYDLFTFGSGTKLEIKR
B8: A1 anti-VSIG4 antibody, human IgG4 (S228P) kappa (antibody, V domains shown)
VH: QVTLKESGPTLVKPTQTLTLTCTFSGISLTTSGMGVGWIRQPPGKALEWLADIFWDDNKYYNPSLKSRLTITKDTSKNQVVLTMTNMDPVDTATYYCVRVYYKNDGYFDVWGKGTTVTVSS
VL: DIVLTQSPLSLPVTLGQPASISCRASKSVTTSGYSFMHWYQQRPGQSPRLLIYLASNLEPGVPDRFSGSGSGTDFTLKISRVEAEDVGVYYCQQSGELPYTFGQGTKLEIKR
notes: variable regions from U.S. Pat. Publ
B9: A2 anti-VSIG4 antibody, human IgG4 (S228P) kappa (antibody, V domains shown)
VH: B8 VH
VL: B8 VL with S80F
notes: as for B8
B10: 9A10.C4 mouse/human chimeric IgG4 (S228P) kappa (antibody, V domains shown)
VH: EVQLVESGGALVQPGGSLKLSCVASGFSFSNCVMSWVRQSPEKRLEWVATIGSDGSYSYYQDNVKGRFTVSRDNAKNTLYLQMSSLGSEDTALYYCGRHIYGYDVVDYWGQGTSLTVSS
VL: B6 VL with S20T, Y36F, Y55F, T56G, A63T, S93D, W96L, G100T, K103T, I106L
B11: 1C6.D6 mouse/human chimeric IgG4 (S228P) kappa (antibody, V domains shown)
VH: QVQLQQPGAEMVRPGTSVKLSCKASGYTFTSYWMHWVKQRPGQGLEWIGKIDPSHNKTHYIQKFEDKATLTVDKSSSTAYMHLNSLTSEDSAVYYCVTWDGDFLYWGQGTLVTVSA
VL: B4 VL with P9A, A12T, L54I, A55T, E59Q, S69G, F91Y, H93Q
notes: also called 1C6.D6b
B12: 14F8.H6 mouse/human chimeric IgG4 (S228P) kappa (antibody, V domains shown)
VH: EVHLVESGGALVKPGGSLKLSCTASGFTFSNSVMSWIRQTPEKRLEWVATIGSGGTYIYYPDSVKGRFTISRDNSKNTLFLQMTSLRSEDTALYYCARHIYGYDVVDYWGQGTTLTVST
VL: DIVMTQSHRFMSTSVGDRVSITCKASHDVSNVVAWYQQKPGQSPELLIYSASYRYTGVPARFTGSGSGTDFTFTISSVQAEDLAVYFCQQHFTTPLTFGAGTSLEVRR
B13: EU103.2 anti-VSIG4 antibody, human IgG4 (S228P) kappa (antibody, V domains shown)
VH: QVQLQESGPGLVKPSQTLSLTCSFSGISLTTSGMGVGWIRQPPGKGLEWLADIFWDDNKYYNPSLKSRVTISVDTSKNQFSLKLSSVTAADTAVYYCVRVYYKNDGYFDVWGQGTLVTVSS
VL: EIVMTQSPATLSVSPGERATLSCRASKSVTTSGYSFMHWYQQKPGQAPRLLIYLASNLEPGIPARFSGSGSGTEFTLTISSLQSEDFAVYYCQHSRELPYTFGQGTKLEIKR
notes: as for B8
B14: 1H7.C7 murine hybridoma antibody (antibody, V domains shown)
VH: B6 VH
VL: DIVMTQSHKFMSTSVGDRVSITCKASQDVSNVVAWYQQKPGQSPKLLIYSASYRYTGVPDRFAGSGSGTDFTFTISSVQAEDLAVYYCQQHYSTPWTFGGGTKLEIK
notes: murine IgG purified from hybridoma supernatant
B15: 1C6.D6 murine hybridoma antibody (antibody, V domains shown)
VH: B11 VH
VL: NIVLTQSPASLTVSLGQRATISCRASESVDSYGNSFMHWYQQKPGQPPKLLIYITSNLQSGVPARFSGGGSRTDFTLTIDPVEADDAATYYCQQNNEDPWTFGGGTKLEIK
notes: murine IgG purified from hybridoma supernatant; also called 1C6.D6b

One test concerns the target T1, Cynomolgus Monkey VSIG4-L-His (cynomolgus monkey).
T1 construct: ECD with His tag; also called cyVSIG4-L; cyno VSIG4-L-His
T1 chain: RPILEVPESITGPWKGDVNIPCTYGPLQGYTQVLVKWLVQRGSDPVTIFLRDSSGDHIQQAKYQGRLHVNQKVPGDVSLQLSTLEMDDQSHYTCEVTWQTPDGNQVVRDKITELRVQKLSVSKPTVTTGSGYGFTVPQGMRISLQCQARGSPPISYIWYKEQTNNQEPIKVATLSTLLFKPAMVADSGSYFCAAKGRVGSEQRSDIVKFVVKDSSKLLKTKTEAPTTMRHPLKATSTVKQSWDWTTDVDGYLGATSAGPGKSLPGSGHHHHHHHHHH
Briefly: ELISA, Fab P.E. 1:5 on coated antigen.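 Further: mouse Fab P.E. samples in 1% skimmed milk PBS, bound to antigen-coated wells for 1 h at room temperature, read as absorbance.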 In general terms: ELISA stands for enzyme-linked immunosorbent assay.
Regarding B1, the “ELISA OD450” value was 0.05 OD450.

Turning to B2, the “ELISA OD450” value was 0.21 OD450.

A further test has as its target T2, Human VSIG4-S-Fc (human).
T2 construct: short isoform ECD fused to human Fc1; also called hVSIG4-S
Briefly: ELISA, Fab P.E. 1:5 on coated antigen.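 Further: mouse Fab P.E. samples in 1% skimmed milk PBS, bound to antigen-coated wells for 1 h at room temperature, read as absorbance.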
B1: the “ELISA OD450” value was determined as 0.06 OD450.

With B2, the “ELISA OD450” value turned out to be 4.3 OD450.

In the next test the target is T3, Human VSIG4-L-Fc (human).
T3 construct: also called hVSIG4-L-Fc; hVSIG4-L
Briefly: ELISA, Fab P.E. 1:5 on coated antigen.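 Further: mouse Fab P.E. samples in 1% skimmed milk PBS, bound to antigen-coated wells for 1 h at room temperature, read as absorbance.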
Regarding B1, the “ELISA OD450” value stood at 4.21 OD450.

On to B2, for which the “ELISA OD450” value came out at 4.43 OD450.

In the next test the target is T3, Human VSIG4-L-Fc. Briefly: BLI cross-blocking on hVSIG4-L-Fc, competitor 14C05 first.
Regarding B3, the “binding signal (nm shift)” value was 0.12 nm.

Take B4: the “binding signal (nm shift)” value is 0.56 nm.

As to B5, the “binding signal (nm shift)” value is 0.24 nm.

For the molecule B6, the “binding signal (nm shift)” value was determined as 0.13 nm.

Regarding B7, the “binding signal (nm shift)” value stood at 0.11 nm.

B8: the “binding signal (nm shift)” value was 0.55 nm.

Take B9: the “binding signal (nm shift)” value was 0.57 nm.

Take B10: the “binding signal (nm shift)” value was found to be 0.14 nm.

For the molecule B11, the “binding signal (nm shift)” value was 0.59 nm.

On to B12, for which the “binding signal (nm shift)” value was determined as 0.15 nm.

As for B13, the “binding signal (nm shift)” value was 0.29 nm.

Another test has as its target T4, Human VSIG4-S-His (human, UniProt Q9Y279 20-283).
T4 construct: short isoform ECD with His tag; also called hVSIG4-S; VISG4-S-His
T4 sequence: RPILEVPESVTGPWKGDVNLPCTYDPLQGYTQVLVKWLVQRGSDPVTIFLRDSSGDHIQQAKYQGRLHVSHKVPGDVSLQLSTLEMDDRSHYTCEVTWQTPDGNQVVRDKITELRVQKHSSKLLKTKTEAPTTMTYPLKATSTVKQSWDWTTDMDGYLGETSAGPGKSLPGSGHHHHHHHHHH
Briefly: BLI (Octet), mouse IgG on AMC sensor, antigen 100 nM.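 Further: octet Red384 biolayer interferometry with immobilized mouse hybridoma antibodies, 300 s association then 300 s dissociation at 30 °C, isotype-control reference subtraction, 1:1 global fit.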
For B14, binding was characterised by a dissociation constant (Kd) of 21.5 nM.

B15 displayed a dissociation constant (Kd) of 3.29 nM.

The target of a further test is T5, Human VSIG4-L-His (human, UniProt Q9Y279 20-283).
T5 construct: long isoform ECD with His tag; also called hVSIG4-L
T5 sequence: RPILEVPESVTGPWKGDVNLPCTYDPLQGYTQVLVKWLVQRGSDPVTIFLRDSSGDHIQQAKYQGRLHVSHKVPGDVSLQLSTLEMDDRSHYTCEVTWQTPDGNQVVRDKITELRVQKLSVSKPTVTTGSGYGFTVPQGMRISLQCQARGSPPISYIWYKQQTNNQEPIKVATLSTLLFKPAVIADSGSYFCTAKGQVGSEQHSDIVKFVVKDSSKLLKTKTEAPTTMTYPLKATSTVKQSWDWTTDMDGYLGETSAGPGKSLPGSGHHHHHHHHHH
Described as above.
For B14, binding was characterised by a dissociation constant (Kd) of 6.83 nM.

On to B15, for which the Kd is 1.03 nM.

The next test has as its target T1, Cynomolgus Monkey VSIG4-L-His. The description is as above.
The molecule B14 yielded an equilibrium dissociation constant (Kd) of 6.45 nM.

The molecule B15 showed a Kd of 1.13 nM.

The target of another test is T5, Human VSIG4-L-His. Put plainly: SPR (Biacore T200), Fab P.E. 1:5 over immobilised antigen. On the technique in general: Surface plasmon resonance follows binding to a sensor surface in real time, without labels.
B1: the koff came to 0.0019 s⁻¹.

The molecule B2 showed a koff of 0.013 s⁻¹.

The target of a further test is T3, Human VSIG4-L-Fc. Put plainly: BLI cross-blocking on hVSIG4-L-Fc, competitor 12A12 first.
Consider B3, for which the “binding signal (nm shift)” value turned out to be 0.07 nm.

Consider B4, for which the “binding signal (nm shift)” value turned out to be 0.09 nm.

As for B5, the “binding signal (nm shift)” value is 0.07 nm.

Take B6: the “binding signal (nm shift)” value is 0.08 nm.

Consider B7, for which the “binding signal (nm shift)” value turned out to be 0.06 nm.

As for B8, the “binding signal (nm shift)” value was found to be 0.57 nm.

As to B9, the “binding signal (nm shift)” value worked out at 0.6 nm.

For the molecule B10, the “binding signal (nm shift)” value is 0.1 nm.

With B11, the “binding signal (nm shift)” value was found to be 0.08 nm.

As to B12, the “binding signal (nm shift)” value was 0.1 nm.

As for B13, the “binding signal (nm shift)” value was 0.3 nm.
